According to article PMC6521584, “Sucrose 6^F-phosphate phosphorylase: a novel insight in the human gut microbiome” (Microbial Genomics, 2019):

System: O=P(O)(O)OC[C@H]1O[C@@](CO)(O[C@H]2O[C@H](CO)[C@@H](O)[C@H](O)[C@H]2O)[C@@H](O)[C@@H]1O
Assay: purified protein
Assay type: biochemical, Mediterraneibacter gnavus
Conditions: phosphorolysis, 100 mM sodium phosphate buffer as co-substrate, pH 6.0, 40 °C, 1.0-20 mM substrate

“RgSPP (sucrose 6^F-phosphate phosphorylase; formerly SucP) (Mediterraneibacter gnavus)” was tested. Which Km did it give?
The Km was 1700 µM.

And the kcat?
The kcat was 740 s⁻¹.

What about the kcat/Km of the same substance?
The kcat/Km was 435000 M⁻¹ s⁻¹.
